Measurements from the supplement of paper PMC6757056.
± gives the standard deviation of the averaged measurements.

B1: library; a variant is named by its letters at N, in order (parent)
chain: GCUGUCACCGAGAAACUGUGAAGUAUAUCUUAAACCUGGGCACUUAAAAGAUAUAUGGAGUUAGUAGUGCAACCUGCUCGGUCUGAUGAGUCCNNNNNNGGACGAAACAGC

Key:
cyclic di-GMP [1] = variants of: B1; assay: normalized RNA/DNA level without ligand (relative to sTRSVctl = 100) (log10 (% of sTRSVctl)); HEK293T; ligand: cyclic di-GMP (c-di-GMP-II aptamer); higher = less ribozyme self-cleavage, higher mRNA level; settings: reporter: mCherry (pCS4076), ligand present: no
Procedure, shortened: (§1)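 Library plasmids carrying ribozyme switches linked to mCherry, or to eGFP in some ligand experiments, were transfected into HEK293T at 4 µg per 6-well well, with any ligand added 1 h earlier. Seventy-two hours on, total RNA was extracted with EDTA and reverse-transcribed, amplified, barcoded and sequenced. RNA level was RNA over DNA reads normalized to a spiked-in non-cleaving sequence or to the top sequences, then scaled and log-transformed. The top set was 25 sequences, the transform was ×100 and log10, and sequences needed ≥100 DNA reads.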

cyclic di-GMP [2] = variants of: B1; assay: normalized RNA/DNA level with ligand (relative to sTRSVctl = 100) (log10 (% of sTRSVctl)); HEK293T; ligand: cyclic di-GMP (c-di-GMP-II aptamer); ligand concentration (+) RNA-Seq: 1 mM; higher = less ribozyme self-cleavage, higher mRNA level; settings: reporter: mCherry (pCS4076), ligand present: yes
Procedure, shortened: as §1

Row | Variant | normalized RNA/DNA level without ligand (log10) (cyclic di-GMP [1]) | normalized RNA/DNA level with ligand (log10) (cyclic di-GMP [2])
1 | CCCCCG | 1.79 ± 0.027 | 1.84 ± 0.071
2 | AGACCU | 1.76 ± 0.057 | 1.895 ± 0.0095
3 | GACUAC | 1.7044 ± 0.00077 | 1.82 ± 0.15
4 | UGAGCC | 1.84 ± 0.02 | 1.91 ± 0.14
5 | UGCGAA | 1.69 ± 0.054 | 1.784 ± 0.013
6 | AGAUCU | 1.72 ± 0.045 | 1.85 ± 0.084
7 | GCCAUG | 1.59 ± 0.051 | 1.79 ± 0.066
8 | UGCAAA | 1.74 ± 0.0094 | 1.84 ± 0.1
9 | AACCAG | 1.6 ± 0.035 | 1.73 ± 0.13
10 | CUAUUU | 1.59 ± 0.024 | 1.75 ± 0.08
11 | UCUUGG | 1.84 ± 0.039 | 1.93 ± 0.15
12 | CGCUCA | 1.47 ± 0.05 | 1.68 ± 0.15
13 | AUAAUG | 1.58 ± 0.034 | 1.75 ± 0.059
14 | CAUAUU | 1.45 ± 0.13 | 1.64 ± 0.067
15 | UGGAUU | 1.669 ± 0.0092 | 1.81 ± 0.13
16 | GAGGCA | 1.81 ± 0.039 | 1.86 ± 0.089
17 | CUUGAU | 1.66 ± 0.023 | 1.82 ± 0.13
18 | CCCGUU | 1.74 ± 0.032 | 1.87 ± 0.089
19 | CUCCUC | 1.76 ± 0.026 | 1.87 ± 0.11
20 | AGCCAG | 1.68 ± 0.077 | 1.79 ± 0.058
21 | UCGUUU | 1.68 ± 0.042 | 1.85 ± 0.11
22 | UCGGUU | 1.61 ± 0.093 | 1.79 ± 0.082
23 | AGGGAU | 1.54 ± 0.084 | 1.74 ± 0.086
24 | UUUUGG | 1.82 ± 0.05 | 1.93 ± 0.13

Row | Variant | normalized RNA/DNA level without ligand (log10) (cyclic di-GMP [1]) | normalized RNA/DNA level with ligand (log10) (cyclic di-GMP [2])
25 | AUGCAC | 1.714 ± 0.0048 | 1.86 ± 0.081
26 | UCGGGG | 1.69 ± 0.06 | 1.83 ± 0.11
27 | UACGGG | 1.62 ± 0.048 | 1.79 ± 0.09
28 | UGUAAC | 1.718 ± 0.0028 | 1.84 ± 0.12
29 | CUGUAG | 1.66 ± 0.051 | 1.84 ± 0.1
30 | CGAUUU | 1.43 ± 0.11 | 1.64 ± 0.13
31 | GGCACC | 1.75 ± 0.06 | 1.82 ± 0.085
32 | UGCGUA | 1.6 ± 0.029 | 1.81 ± 0.1
33 | CCGGUC | 1.622 ± 0.0071 | 1.83 ± 0.073
34 | UAGGAC | 1.528 ± 0.015 | 1.73 ± 0.082
35 | UGUACG | 1.792 ± 0.0062 | 1.87 ± 0.032
36 | CCGCAA | 1.447 ± 0.014 | 1.68 ± 0.14
37 | ACUCGG | 1.72 ± 0.074 | 1.76 ± 0.2
38 | GCGAAG | 1.45 ± 0.068 | 1.63 ± 0.087
39 | GUACUU | 1.7 ± 0.036 | 1.81 ± 0.15
40 | UGUCAG | 1.67 ± 0.042 | 1.82 ± 0.1
41 | CGUGCU | 1.64 ± 0.05 | 1.81 ± 0.063
42 | UAAUAU | 1.64 ± 0.017 | 1.78 ± 0.11
43 | ACCUCG | 1.73 ± 0.056 | 1.83 ± 0.15
44 | UCACCC | 1.83 ± 0.032 | 1.88 ± 0.096
45 | CCGCUG | 1.28 ± 0.15 | 1.56 ± 0.12
46 | AAAACA | 1.51 ± 0.072 | 1.7 ± 0.074
47 | CACUGC | 1.76 ± 0.024 | 1.87 ± 0.096
48 | CCAUGA | 1.52 ± 0.033 | 1.72 ± 0.087

Row | Variant | normalized RNA/DNA level without ligand (log10) (cyclic di-GMP [1]) | normalized RNA/DNA level with ligand (log10) (cyclic di-GMP [2])
49 | CUUCGA | 1.71 ± 0.026 | 1.84 ± 0.065
50 | ACAGGG | 1.5 ± 0.11 | 1.58 ± 0.15
51 | ACAGGC | 1.5 ± 0.065 | 1.68 ± 0.11
52 | AUUAUA | 1.58 ± 0.03 | 1.74 ± 0.095
53 | UGAGAC | 1.71 ± 0.022 | 1.8 ± 0.093
54 | UGGUGC | 1.72 ± 0.053 | 1.86 ± 0.099
55 | AGCUGG | 1.64 ± 0.043 | 1.81 ± 0.12
56 | AGCAUU | 1.66 ± 0.0074 | 1.84 ± 0.073
57 | CACGAU | 1.68 ± 0.032 | 1.83 ± 0.089
58 | GACACC | 1.71 ± 0.044 | 1.83 ± 0.075
59 | ACGCAC | 1.61 ± 0.018 | 1.79 ± 0.11
60 | CGGGAU | 1.49 ± 0.05 | 1.64 ± 0.13
61 | CCUUCG | 1.74 ± 0.0028 | 1.87 ± 0.14
62 | UCUCUU | 1.74 ± 0.039 | 1.86 ± 0.089
63 | UGGCUG | 1.836 ± 0.013 | 1.9 ± 0.095
64 | UUCAAG | 1.689 ± 0.0038 | 1.82 ± 0.086
65 | GCUAGC | 1.696 ± 0.0018 | 1.8 ± 0.17
66 | UCACAU | 1.58 ± 0.048 | 1.78 ± 0.087
67 | GAUUCG | 1.7482 ± 0.0012 | 1.88 ± 0.06
68 | GUUGUU | 1.67 ± 0.038 | 1.81 ± 0.098
69 | CUGUGU | 1.75 ± 0.027 | 1.86 ± 0.11
70 | CCUGUC | 1.69 ± 0.019 | 1.87 ± 0.089
71 | AACAUA | 1.52 ± 0.076 | 1.74 ± 0.12
72 | CCAUCG | 1.73 ± 0.088 | 1.84 ± 0.1

Row | Variant | normalized RNA/DNA level without ligand (log10) (cyclic di-GMP [1]) | normalized RNA/DNA level with ligand (log10) (cyclic di-GMP [2])
73 | AAGUCU | 1.68 ± 0.058 | 1.8 ± 0.12
74 | UAAACC | 1.77 ± 0.027 | 1.85 ± 0.076
75 | CCAAAA | 1.35 ± 0.091 | 1.62 ± 0.079
76 | CGUUGG | 1.737 ± 0.0074 | 1.85 ± 0.072
77 | CGCCCU | 1.777 ± 0.0073 | 1.87 ± 0.077
78 | GAAUCA | 1.638 ± 0.0066 | 1.82 ± 0.1
79 | UAGAGA | 1.51 ± 0.042 | 1.72 ± 0.089
80 | CAACUC | 1.685 ± 0.011 | 1.82 ± 0.086
81 | CAUUGC | 1.78 ± 0.056 | 1.85 ± 0.15
82 | UAAAGU | 1.54 ± 0.076 | 1.77 ± 0.048
83 | CAAGUC | 1.7 ± 0.055 | 1.78 ± 0.14
84 | CGUCGG | 1.7 ± 0.039 | 1.81 ± 0.13
85 | AGGGUC | 1.71 ± 0.07 | 1.85 ± 0.18
86 | UAUUGA | 1.6713 ± 0.00062 | 1.83 ± 0.1
87 | UAUUGU | 1.67 ± 0.034 | 1.81 ± 0.11
88 | GUCCCG | 1.76 ± 0.058 | 1.85 ± 0.21
89 | UCCAUU | 1.63 ± 0.023 | 1.81 ± 0.14
90 | GGACUC | 1.757 ± 0.0094 | 1.92 ± 0.082
91 | AUUUGC | 1.76 ± 0.038 | 1.87 ± 0.12
92 | AUGAUA | 1.53 ± 0.069 | 1.71 ± 0.14
93 | CUCCGG | 1.79 ± 0.072 | 1.87 ± 0.17
94 | CAUAGA | 1.54 ± 0.073 | 1.69 ± 0.031
95 | UGCUGA | 1.6 ± 0.017 | 1.8 ± 0.085
96 | ACUAGC | 1.6 ± 0.048 | 1.77 ± 0.12

Row | Variant | normalized RNA/DNA level without ligand (log10) (cyclic di-GMP [1]) | normalized RNA/DNA level with ligand (log10) (cyclic di-GMP [2])
97 | GUCGGU | 1.67 ± 0.039 | 1.83 ± 0.062
98 | AACUCG | 1.66 ± 0.047 | 1.82 ± 0.085
99 | AACUCA | 1.65 ± 0.035 | 1.8 ± 0.088
100 | CGGGGU | 1.72 ± 0.0034 | 1.83 ± 0.13
101 | UUAUUG | 1.7 ± 0.026 | 1.83 ± 0.16
102 | UGGAGU | 1.59 ± 0.1 | 1.76 ± 0.11
103 | GUGUAU | 1.6 ± 0.018 | 1.78 ± 0.14
104 | UUUUUA | 1.77 ± 0.038 | 1.92 ± 0.11
105 | CUAGCG | 1.772 ± 0.015 | 1.85 ± 0.18
106 | GUUUGU | 1.69 ± 0.022 | 1.84 ± 0.067
107 | CCGGGC | 1.821 ± 0.013 | 1.93 ± 0.12
108 | UAACAC | 1.68 ± 0.035 | 1.83 ± 0.13
109 | AUCAAA | 1.57 ± 0.059 | 1.77 ± 0.074
110 | GCUGCC | 1.67 ± 0.067 | 1.83 ± 0.16
111 | UACGUA | 1.64 ± 0.018 | 1.8 ± 0.056
112 | CUGCUA | 1.4 ± 0.025 | 1.57 ± 0.091
113 | CUGCUU | 1.6 ± 0.06 | 1.76 ± 0.09
114 | AUAUUC | 1.707 ± 0.0056 | 1.84 ± 0.12
115 | AAGGUC | 1.61 ± 0.034 | 1.75 ± 0.077
116 | UUAUAG | 1.71 ± 0.046 | 1.8 ± 0.11
